Assay results from patent US20230287143A1 (published 2023).

Columns and labels:
human PD-L1 = biological target: T1, human PD-L1 (human, UniProt Q9NZQ7 19-290); test: flow cytometry on CHO-K1/hPD-L1 cells
T1 construct: whole, on cells; also called CD274; B7-H1
Procedure: (§1) The cells were incubated at 4° C. for 1 h away from light. […] Then, the cells in each well were then rinsed twice with 200 μL of pre-cooled FACS buffer and centrifuged at 500 g at 4° C. for 5 min, and then the supernatant was discarded. Finally, a pre-cooled FACS buffer was added at 200 μL/well to resuspend the cells.

human 4-1BB = biological target: T2, human 4-1BB (human, UniProt Q07011 24-255); test: flow cytometry on CHO-K1/hu 4-1BB cells
T2 construct: whole, on cells; also called CD137; TNFRSF9
T2 sequence (Q07011 24-255): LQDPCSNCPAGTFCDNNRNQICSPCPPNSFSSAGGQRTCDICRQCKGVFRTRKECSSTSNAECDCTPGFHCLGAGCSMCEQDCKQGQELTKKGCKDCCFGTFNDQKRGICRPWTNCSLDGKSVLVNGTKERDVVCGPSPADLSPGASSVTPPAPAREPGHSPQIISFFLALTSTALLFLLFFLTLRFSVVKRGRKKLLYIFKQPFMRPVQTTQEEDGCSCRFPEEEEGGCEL
Procedure: as §1, with “Specifically, the cells were digested and resuspended in a complete medium, and the cell density was adjusted to 2×10⁶ cells/mL. […] The cells” for “The cells”

[1] = biological target: T3, recombinant human BCMA-ECD-Fc fusion protein (ACRO Biosystems, #BC7-H82F0), biotinylated (human, UniProt Q02223 1-54, biotinylated with EZ-Link Sulfo-NHS-LC-Biotin (sites not given)); test: BLI (Octet Red96e), biotinylated BCMA-ECD-Fc on SA sensor, binding protein 10-2.5 nM in solution, 1:1 global fitting
T3 construct: extracellular domain; Bought protein; also called biotinylated BCMA
T3 sequence (looked up): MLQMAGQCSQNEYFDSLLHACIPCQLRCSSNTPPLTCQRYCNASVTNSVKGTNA
Procedure: In this example, the binding kinetics between the BCMA binding protein and BCMA were analyzed by the Biolayer Interferometry (BLI) technique using an Octet molecular interaction analyzer (ForteBio, Octet Red96e).
Two columns of SA sensors (8 sensors in each column; with the sensors in the first column referred to as the reference SA sensor and the sensors in the second column referred to as the test SA sensor) were firstly equilibrated in the equilibration buffer for 10 min. Then, the biotinylated BCMA were captured by test SA sensors with a capture height of 0.2 nm, and the reference SA sensors were immersed in the buffer for 30 s. The two arrays of sensors were combined with the test BCMA-binding protein at concentrations obtained by a two-fold dilution from 10 nM to 2.5 nM and a concentration of 0 nM. The sensors were combined with the test proteins for 180 s and then dissociated for 800 s.
When data analysis was performed using Octet Data Analysis software (Fortebio, version 11.0), the reference signals were subtracted by a double reference mode; the data were fitted by a “1:1 Global fitting” method, and the kinetic parameters of the binding of the antigen to the antigen-binding protein were calculated to obtain kₒₙ (1/Ms) values, kdis (1/s) values and KD (M) values.

human CTLA4 = biological target: T4, human CTLA4 (human, UniProt P16410 36-223); test: flow cytometry on CHO-K1/hCTLA4 cells
T4 construct: whole, on cells; also called CD152; CHO-K1/hCTLA4
T4 sequence (P16410 36-223): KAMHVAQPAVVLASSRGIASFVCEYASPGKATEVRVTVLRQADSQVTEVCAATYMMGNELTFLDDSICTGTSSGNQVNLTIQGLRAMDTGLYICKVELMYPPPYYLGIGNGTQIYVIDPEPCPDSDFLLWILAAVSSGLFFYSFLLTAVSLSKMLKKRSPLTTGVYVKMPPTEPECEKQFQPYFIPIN
Procedure: as §1

T1 sequence (Q9NZQ7 19-290): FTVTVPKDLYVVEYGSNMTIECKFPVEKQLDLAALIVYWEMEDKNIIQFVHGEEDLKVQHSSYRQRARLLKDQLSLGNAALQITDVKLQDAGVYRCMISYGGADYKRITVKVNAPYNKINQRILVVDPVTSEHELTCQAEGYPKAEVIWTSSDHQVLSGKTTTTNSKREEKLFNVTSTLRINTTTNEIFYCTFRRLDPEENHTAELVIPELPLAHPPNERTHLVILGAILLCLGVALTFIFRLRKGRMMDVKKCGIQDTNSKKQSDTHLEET

B1: PR004268, PD-L1×4-1BB bispecific binding protein with the VH-IgG structure (structure 4) (bispecific antibody)
light: DIQMTQSPSTLSASVGDRVTVTCRASQSIYIWLAWYQQKPGKAPNLLIYKASSLETGVPSRFSGSGSGTEFTLTISSLQPDDFATYYCQQYYGSSRTFGQGTKVEIKRTVAAPSVFIFPPSDEQLKSGTASVVCLLNNFYPREAKVQWKVDNALQSGNSQESVTEQDSKDSTYSLSSTLTLSKADYEKHKVYACEVTHQGLSSPVTKSFNRGEC
heavy: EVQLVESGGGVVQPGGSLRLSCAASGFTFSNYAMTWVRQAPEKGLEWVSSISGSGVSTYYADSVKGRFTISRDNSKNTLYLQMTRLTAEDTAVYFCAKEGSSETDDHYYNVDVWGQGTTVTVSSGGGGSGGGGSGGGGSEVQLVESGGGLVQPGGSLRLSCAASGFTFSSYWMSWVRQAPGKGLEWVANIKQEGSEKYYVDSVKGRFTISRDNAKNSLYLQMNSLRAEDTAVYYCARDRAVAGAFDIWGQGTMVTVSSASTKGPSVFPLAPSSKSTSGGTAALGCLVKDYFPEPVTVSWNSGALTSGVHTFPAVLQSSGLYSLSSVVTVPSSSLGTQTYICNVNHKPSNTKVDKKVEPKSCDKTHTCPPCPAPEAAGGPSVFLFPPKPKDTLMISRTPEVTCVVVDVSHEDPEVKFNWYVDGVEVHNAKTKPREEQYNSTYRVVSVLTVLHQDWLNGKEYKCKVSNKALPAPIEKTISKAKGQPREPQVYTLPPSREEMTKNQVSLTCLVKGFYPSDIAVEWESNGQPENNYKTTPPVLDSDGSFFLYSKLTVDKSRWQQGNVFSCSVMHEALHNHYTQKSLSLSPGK
notes: 4-1BB VH (PR001760) at the N-terminus of the heavy chain of PD-L1 IgG (PR000265); linker GS_15; human IgG1 (LALA)
B1: binds (human PD-L1).

B2: PR000701, PD-L1×4-1BB bispecific binding protein with the FIT-Ig structure (structure 5) (bispecific antibody, human IgG4 S228P, kappa)
chain 1: not shown
chain 2: EVQLVESGGGLVQPGGSLRLSCAASGFTFSSYWMSWVRQAPGKGLEWVANIKQEGSEKYYVDSVKGRFTISRDNAKNSLYLQMNSLRAEDTAVYYCARDRAVAGAFDIWGQGTMVTVSSASTKGPSVFPLAPSSKSTSGGTAALGCLVKDYFPEPVTVSWNSGALTSGVHTFPAVLQSSGLYSLSSVVTVPSSSLGTQTYICNVNHKPSNTKVDKKVEPKSC
light: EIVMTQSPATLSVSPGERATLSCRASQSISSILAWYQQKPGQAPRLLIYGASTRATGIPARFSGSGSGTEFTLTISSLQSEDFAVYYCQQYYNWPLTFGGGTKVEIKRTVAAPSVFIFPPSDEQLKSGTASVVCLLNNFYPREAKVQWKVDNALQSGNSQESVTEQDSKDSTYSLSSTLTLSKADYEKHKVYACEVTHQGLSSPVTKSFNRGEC
notes: FIT-Ig, symmetric tetravalent, three different chains; PD-L1 Fab of PR000265, 4-1BB Fab of PR000197 close to Fc; human IgG4
B2: binds (human PD-L1); binds (human 4-1BB).

B3: Anti-BCMA heavy-chain antibody PR001046_R2_4G10 (antibody, human IgG1, V domains shown)
VH: EVQLVETGGGLIQPGGSLRLSCAASGFTVSDSYMTWVRQAPGKGLEWVSVIFSGGRTYYSDSVKGRFTISRDNAKNTLYLQMNSLRAEDTALYYCARRNYDDTRGTDVFDIWGQGTMVTVSS
notes: Fully human heavy-chain-only antibody (HCAb), bivalent, no light chain; also called PR004433
Binder B3 has a Kd [1] of 79.2 pM, a koff [1] of 7.16e-05 s⁻¹ and a kon [1] of 904000 M⁻¹ s⁻¹.

B4: PR005744, BCMA×BCMA bispecific binding protein with the Fab-HCAb structure (structure 1) (bispecific antibody, human IgG1, kappa)
chain 1: QVQLVESGGGVVQPGRSLRLSCAATGFTFSSYGMYWVRQAPGKGLEWVAAIWNDGSNNYYADSVKGRFTISRDDSKNTLNLQMNSLRAEDTAMYYCARDRLPMASLRYFDWLGVMDAWGQGTSVTVSSASTKGPSVFPLAPSSKSTSGGTAALGCLVKDYFPEPVTVSWNSGALTSGVHTFPAVLQSSGLYSLSSVVTVPSSSLGTQTYICNVNHKPSNTKVDKKVEPKSC
chain 2: not shown
notes: no first linker; human IgG1 hinge and Fc
B4 was tested, and the Kd [1] was 27.9 pM, the koff [1] was 4.87e-05 s⁻¹ and the kon [1] was 1.75e+06 M⁻¹ s⁻¹.

B5: Anti-CTLA4 heavy-chain antibody CL5v3 (antibody, human IgG1, V domains shown)
VH: EVQLVESGGGLIQPGGSLRLSCAVSGFTVSKNYMSWVRQAPGKGLEWVSVVYSGGSKTYADSVKGRFTISRDNSKNTLYLQMNSLRAEDTAVYYCARAVPHSPSSFDIWGQGTMVTVSS
notes: Fully human heavy-chain-only antibody (HCAb), no light chain; also called PR000184
B5: binds (human CTLA4).
